Results taken from patent publication US20190382484A1 (Chugai, published 2019).
Positions count from the first letter of the chain named. Blank lines part the entries; values can stand above or below the binder they belong to.

Experiments:
[1] = biological target: T1, antibody-half molecule A1 with PF1H / PF1L-k0 (PF1H-DA303v2/PF1L-k0); experiment: SPR (Biacore T200), about 50 RU of half molecule A captured via biotinylated antigen peptide, half molecule B as analyte at 2.5 mg/mL, 25 C (Example 10)
Protocol: (§1) The interaction between the obtained antibody-half molecules was analyzed using Biacore (registered trademark) T200. Biotin CAPture Kit, Series S (GE Healthcare) was used for the measurement, and HBS-EP+10X (GE Healthcare) diluted 1/10th was used as a running buffer. The measurement temperature was 25° C. For the sensor chip, Series S Sensor Chip CAP (GE Healthcare) onto which previously-biotinylated antigen peptides were allowed to interact and thereby immobilized was used. These chips were allowed to capture approximately 50 RU of the antibody-half molecule A of interest and then interact with the antibody-half molecule B of interest diluted with the running buffer at 2.5 mg/mL for 180 seconds at a flow rate of 30 μL/min, and measurement was carried out. The molar binding ratio was calculated based on the following Formula 2. The antibody-half molecule A captured on the chip was washed as described in the instructions attached to the kit, and the chip was regenerated and reused.
(§2) At this time, for the antibody-half molecule to be captured, PF1H (SEQ ID NO: 22), which is the H chain variable region portion of the anti-human IL6 receptor antibody described in WO 2009/041621, was used as the H chain variable region portion, PF1L (SEQ ID NO: 23), which is the L chain variable region portion of the anti-human IL6 receptor antibody described in WO 2009/041621, was used as the L chain variable region portion, and k0 was used as the L chain constant region portion. In addition, for the antibody-half molecules used as analytes, IC17H (SEQ ID NO: 24), which is the anti-KLH antibody described in WO 2015/174439, was used as the H chain variable region, IC17L (SEQ ID NO: 25), which is the anti-KLH antibody described in WO 2015/174439, was used as the L chain variable region, and k0 was used as L chain constant region.

[2] = biological target: T1, antibody-half molecule A1 with PF1H / …; experiment: SPR (Biacore T200), about 50 RU of half molecule A captured via biotinylated antigen peptide, half molecule B as analyte at 2.5 mg/mL, 25 C
Protocol: as §1
as §2, with “the antibody-half molecules to be” for “the antibody-half molecule to be”, “used as the L chain” for “used as L chain”

[3] = biological target: antibody-half molecule A3 with PF1H / PF1L-k0 (PF1H-DA405v2/PF1L-k0); experiment: as above
Protocol: as §1
as §2, with “the antibody-half molecules to be” for “the antibody-half molecule to be”, “used as the L chain” for “used as L chain”

[4] = biological target: antibody-half molecule A7 with PF1H / PF1L-k0 (PF1H-DA303v2.n.HATF.B/PF1L-k0); experiment: SPR (Biacore T200), about 50 RU of half molecule A captured via biotinylated antigen peptide, half molecule B as analyte at 2.5 mg/mL, 25 C (Example 10)
Protocol: as §1, §2

[5] = biological target: antibody-half molecule A6 with PF1H / PF1L-k0 (PF1H-DA303v2.n.n/PF1L-k0); experiment: as above
Protocol: as §1, §2

[6] = biological target: antibody-half molecule A5 with PF1H / PF1L-k0 (PF1H-DA430v2/PF1L-k0); experiment: SPR (Biacore T200), about 50 RU of half molecule A captured via biotinylated antigen peptide, half molecule B as analyte at 2.5 mg/mL, 25 C
Protocol: as §1
as §2, with “the antibody-half molecules to be” for “the antibody-half molecule to be”, “used as the L chain” for “used as L chain”

[7] = biological target: antibody-half molecule A4 with PF1H / PF1L-k0 (PF1H-DA424v2/PF1L-k0); experiment: as above
Protocol: as §1
as §2, with “the antibody-half molecules to be” for “the antibody-half molecule to be”, “used as the L chain” for “used as L chain”

[8] = biological target: antibody-half molecule A2 with PF1H / PF1L-k0 (PF1H-DA402v2/PF1L-k0); experiment: as above
Protocol: as §1
as §2, with “the antibody-half molecules to be” for “the antibody-half molecule to be”, “used as the L chain” for “used as L chain”

B2: antibody-half molecule B3 with IC17H / IC17L-k0 (IC17H-DB405v2/IC17L-k0) (antibody, human IgG1, kappa)
heavy: QVQLQQSGPQLVRPGASVKISCKASGYSFTSYWMHWVNQRPGQGLEWIGMIDPSYSETRLNQKFKDKATLTVDKSSSTAYMQLSSPTSEDSAVYYCALYGNYFDYWGQGTTLTVSSASTKGPSVFPLAPSSKSTSGGTAALGCLVKDYFPEPVTVSWNSGALTSGVHTFPAVLQSSGLYSLSSVVTVPSSSLGTQTYICNVNHKPSNTKVDKKVEPKSCDKTHTSPPSPAPELLGGPSVFLFPPKPKDTLMISRTPEVTCVVVDVSHEEPEVKFNWYVDGVEVHNAKTKPREEQYNSTYRVVSVLTVLHQDWLNGKEYKCKVSNDALPMPIEETISKAKGQPREPQVYTLPPSRDELTKNQVSLTCLVKGFYPSDIAVEWESNGQPENNYKTTPPYLDSDGSFFLYSTLTVDKSRWQQGNVFSCSVMHEALHNHYTQESLSLSP
light: DIQMTQSSSSFSVSLGDRVTITCKASEDIYNRLAWYQQKPGNAPRLLISGATSLETGVPSRFSGSGSGKDYTLSITSLQTEDVATYYCQQYWSTPYTFGGGTKLEVKRTVAAPSVFIFPPSDEQLKSGTASVVCLLNNFYPREAKVQWKVDNALQSGNSQESVTEQDSKDSTYSLSSTLTLSKADYEKHKVYACEVTHQGLSSPVTKSFNRGEC
molar binding ratio [3]: 0.54

B3: antibody-half molecule B7 with IC17H / IC17L-k0 (IC17H-DB220v2.n.HATF.A/IC17L-k0) (antibody, human IgG1, kappa)
heavy: B2 heavy with S363H, F404A, T408D, E438K
light: B2 light
molar binding ratio [4]: 0.32

B4: antibody-half molecule B6 with IC17H / IC17L-k0 (IC17H-DB220v2.n.n/IC17L-k0) (antibody, human IgG1, kappa)
heavy: B2 heavy with T408D, E438K
light: B2 light
molar binding ratio [5]: 0.42

B7: antibody-half molecule B2 with IC17H / IC17L-k0 (IC17H-DB402v2/IC17L-k0) (antibody, human IgG1, kappa)
heavy: B2 heavy with T408H
light: B2 light
molar binding ratio [8]: 0.63

Now from value to binder:

molar binding ratio [1]: 0.54 | molar binding ratio [2]: 0.38
B1: antibody-half molecule B1 with IC17H / IC17L-k0 (IC17H-DB220v2/IC17L-k0) (antibody, human IgG1, kappa)
heavy: B2 heavy with T408D
light: B2 light

molar binding ratio [6]: 0.27
B5: antibody-half molecule B5 with IC17H / IC17L-k0 (IC17H-DB430v2/IC17L-k0) (antibody, human IgG1, kappa)
heavy: B2 heavy with E356L, T408D
light: B2 light

molar binding ratio [7]: 0.25
B6: antibody-half molecule B4 with IC17H / IC17L-k0 (IC17H-DB424v2/IC17L-k0) (antibody, human IgG1, kappa)
heavy: B2 heavy with E356N, T408D
light: B2 light
